Reference: US10138280B2, “Polypeptides targeting glycosylated MUC2 proteins, methods of synthesis, their nucleic acids and uses thereof” (INSTITUT PASTEUR, priority 2011, dated 2018)

What was measured:
[1] = system: neutrophiles (white blood cells) in rabbit ileum sub-mucosa; assay: Staining of neutrophiles in rabbit ileum sub-mucosa; details: PFA 4% fixed rabbit ileum; colocalized with α-elastase (PMN) signal
Method: FIG. 13. Staining of individual neutrophiles (white blood cells) in rabbit ileum sub-mucosa. Cy5-MUB70 was incubated on PFA 4% fixed tissues. Signal was colocalized with an α-elastase (PMN) signal. (Primary antibody is α-elastase (PMN) 1:400 and secondary antibody is anti-mouse GFP 1:400, MUBCys5 1:400, Phalloidin-RRX 1:400). […] In particular, granules staining is achieved.

rabbit colonic mucus = assay: Mucus staining on fixed tissues, rabbit colon
Method: FIGS. 8A-8D. (FIG. 8A) Cell toxicity of Cy5-MUB70 tested on HT-29-MTX and Hela epithelial cells. Cell survival was assessed using Sytoxgreen dye on cultures exposed to 1 μg/mL Cy5-MUB70 from 0 to 10 h, as indicated. NS indicates P>0.05 (Student's T-test). (FIG. 8B) Rabbit colonic and ileal mucus staining on fixed tissues (PFA 4%), using Cy5-MUB70 (1 μg/mL) (blue). Actin is stained in red (Phall.-RRX). Bar is 50 μm. (FIG. 8C) Human ex vivo colon sample was incubated for 2 h with 1 μg/mL Cy5-MUB70 in a serum-free media. Resulting fluorescent staining was assessed using a two-photons microscope (see Methods). Z-projection, performed using ImageJ software, allows 3D localization of Cy5-MUB70 fluorescence signal. Bar is 100 μm. Colon scheme: firmly (f) and loosely (I) attached colonic mucus layers are represented at the surface of the epithelium (e). (FIG. 8D) Kinetics of colonic mucus with Cy5-MUB70. […] Human tissue autofluorescence is detected in the same red channel as Cy5.
FIGS. 9A-9B. (FIG. 9A) Co-localization of Muc2 (green) and Cy5-MUB (blue) performed by immunofluorescent detection on human mucus extract collected on ex vivo tissues using an epifluorescent microscope. Bar is 50 μm. (FIG. 9B) Co-localization of Muc2 (green) and Cy5-MUB (blue) observed on fixed (PFA 4%) rabbit colon samples. Actin is stained in red (Phall.RRX). Observations are performed using a confocal microscope. […]

[2] = target: T1, human colonic mucus and goblet cells (Homo sapiens, UniProt Q02817); assay: Fluorescent staining of healthy human colon, formol fixed, paraffin embedded samples
T1 construct: Segments of human colon (ascending, descending and sigmoid colon) were obtained from fully informed patients undergoing surgery; from tissue; host or cells: healthy human colon segments (live explants, mucus collected from them, Carnoy- or formol-fixed sections)
Method: FIG. 22. Schematic description of the Cy5-MUB40-1, Cy5-MUB40-2, Cy5-MUB40-3, Cy5-MUB40-4 peptides (SEQ ID NOS 62 to 65). Fluorescent staining of human colonic mucus was performed by the addition of 1 μg/mL of the corresponding Cy5-conjugated peptides with Phalloidin-RRX (1:100) on formol fixed, paraffin embedded samples. Image acquisition was performed using a fluorescent confocal microscope (see Methods).
FIG. 23 Comparative staining analysis of human colonic goblet cells using Cy5-MUB70 and Cy5-MUB40-1. Fluorescent staining of human colonic mucus was performed by the addition of 1 μg/mL of the corresponding Cy5-conjugated peptides with Phalloidin-RRX (1:100) on formol fixed, paraffin embedded samples. Image acquisition was performed using a fluorescent confocal microscope (see Methods).
(§1) FIGS. 24A-24B. Comparative human colonic mucus staining using MUB70-Cy5 on healthy tissues and mucinous carcinomas (Coic et al, JBC, 2012 (41)). Fluorescent staining of human colonic mucus was performed by the addition of 1 μg/mL of the corresponding Cy5-conjugated peptides with Phalloidin-RRX (1:100) on formol fixed, paraffin embedded samples. Image acquisition was performed using a fluorescent confocal microscope (see Methods).
As colonic mucinous carcinomas are characterized by abnormal overproduction of Muc2 in the colon mucosa (40), the inventors have hypothesized that Cy5-MUB70 could be used as a novel fluorescent marker for the diagnosis of this pathology. […] As shown previously on a healthy colon (FIG. 3B), the luminal mucus secreted fraction is detected by Cy5-MUB70 (FIG. 24A, top panel). […] This observation might be the consequence of a higher level of mucus compaction, resulting in a lower accessibility for MUB70 to bind Muc2. […] Cy5-MUB70 has been validated as a potent innovative diagnostic tool for colonic mucinous carcinoma detection and might be optimized with alternative markers (e.g. biotin) for practical clinical applications.

[3] = target: T2, mucus of human colonic mucinous carcinomas (Muc2) (Homo sapiens, UniProt Q02817); assay: Fluorescent staining of human colonic mucinous carcinoma samples
T2 construct: five different samples collected from patients diagnosed with colonic mucinous carcinomas; from tissue; host or cells: human colonic mucinous carcinoma samples, fixed, paraffin embedded
Method: as §1
Ex vivo human colon samples were obtained from Dr. E. Labruyère (Institut Pasteur) and tissue processing was performed as described previously and stored in serum free RMPI media (surgical procedure is described herein). Human mucinous carcinoma formamide fixed samples were obtained from Dr. T. Lazure (Hôpitaux Universitaires Paris-Sud, Kremlin-Bicêtre) and Pr. I. Sobhani (Hôpital Henri Mondor, Créteil). Rabbit colon and ileum samples were collected on naïve New Zealand white rabbits weighting 2.5-3 kg and fixed in PFA 3%. […]
As colonic mucinous carcinomas are characterized by abnormal overproduction of Muc2 in the colon mucosa (40), the inventors have hypothesized that Cy5-MUB70 could be used as a novel fluorescent marker for the diagnosis of this pathology. […] As shown previously on a healthy colon (FIG. 3B), the luminal mucus secreted fraction is detected by Cy5-MUB70 (FIG. 24A, top panel). […]

mouse colonic mucus = assay: Mucus staining on fixed tissues, mouse colon; details: fixed tissue, 1 μg/mL
Method: FIGS. 11A-11C. Mucus staining using Cy5-MUB70 on fixed tissues. (FIG. 11A) Guinea pig colon, (FIG. 11B) rabbit ileum and (FIG. 11C) mouse colon were fixed in PFA 4%. Immunofluorescent staining was performed using Cy5-MUB70 (1 μg/mL) (blue). Actin is stained in red (Phall.-RRX), Muc2 is stained in green (α-Muc2). Observations were performed using a confocal microscope. Bar is 50 μm.
Ex vivo human colon samples were obtained from Dr. E. Labruyère (Institut Pasteur) and tissue processing was performed as described previously and stored in serum free RMPI media (surgical procedure is described herein). Human mucinous carcinoma formamide fixed samples were obtained from Dr. T. Lazure (Hôpitaux Universitaires Paris-Sud, Kremlin-Bicêtre) and Pr. I. Sobhani (Hôpital Henri Mondor, Créteil). Rabbit colon and ileum samples were collected on naïve New Zealand white rabbits weighting 2.5-3 kg and fixed in PFA 3%. Same procedure was applied on intestine samples collected on guinea pigs (Charles River) and C57/B6 mice (Janvier).
Following PFA 4% or Carnoy fixation, as indicated, samples were washed in PBS, incubated at 4° C. in PBS containing 12% sucrose for 90 min, then in PBS with 18% sucrose overnight, and frozen in OCT (Sakura) on dry ice. 7 μm sections were obtained using a cryostat CM-3050 (Leica). […]

B1: Cy5-MUB70: Cy5-labelled MUB70 polypeptide, labelled via Cy5 maleimide on N-terminal cysteine (conjugate)
peptide: CVHVQYIDGETDQMLRQDDLDGYTDETIPYSTAEGIKKFEGDGYELFKDNFPAGEKFDNDDTNDQFYTVIF
neutrophile staining in tissue [1]: binding specifically a neutrophile component | colocalization with Muc2 (rabbit colonic mucus; fixed rabbit colon samples): colocalization detection of Muc2 and Cy5-MUB70 | colonic mucus staining (rabbit colonic mucus; rabbit colon, fixed tissue, 1 μg/mL): confirmed | mucosal staining in healthy colon tissues ([2]; colonic mucosa of healthy colon tissues from the same patients): no mucosal staining was observed | luminal mucus secreted fraction staining in healthy colon ([2]; healthy colon, fixed): detected | goblet cells binding ([2]; human colonic goblet cells, fixed samples, 1 μg/mL): not recognized | staining of colonic mucinous carcinoma samples ([3]; five samples from patients, 1 μg/mL): specific staining was observed within the mucus accumulation areas | colocalization with Muc2 in colonic mucinous carcinomas ([3]; mucus accumulation within the colonic mucosa, associated with tumor cells): colocalizes with the presence of Muc2 | colonic mucus staining (mouse colonic mucus): not stained
